# Test results: the supplement of paper PMC12636428
# Test system: Saccharomyces cerevisiae
# Experiment: transcriptional activation domain activity (GFP:mCherry ratio, weighted mean of sorted bins, harmonized to initial dataset scale) (arbitrary fluorescence ratio units); higher = stronger transcriptional activation
# Conditions: beta-estradiol 1 µM; induction time 4 h
# How it was run: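 Barcoded protein tiles fused to an estradiol-inducible synthetic transcription factor were integrated at the yeast URA3 locus, in diploids carrying a GFP reporter. Cultures were diluted 1:5 into SC with 1 uM beta-estradiol, held 4 hours at 30 °C, sorted into 8 bins by GFP:mCherry ratio, and barcodes sequenced. Tiles under 50 reads were discarded. Activation activity is the read-weighted mean of bin median fluorescence, averaged across barcodes, then linearly mapped onto the initial dataset scale.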
row,Sequence,transcriptional activation domain activity
1,VALDHLYLDEEQTHAIKSLSSLYIKVVIIFIKYLLVHRKIKQRLVRSWAYCYD,57900
2,VALPCSFRGLLRFACVTWLKHLFGLISRVLDFQAWWGVQLHCLFLLGLMLLPP,63500
3,VALTFYFLFLLFLILLRLGLISCFVFFNFWYIYHFFYLSINLSIFFISFHSFI,78300
4,VANHQIYADWLYVWCLTYFMGMHKDVLIVLKRSLKWVPVLGWGMQIFRFIFLA,70100
5,VANILCLSTSLLACSMVFWSIPSWYYLVSHYQEWMPHVILPLYLLWWLFMMLV,39200
6,VAPLLLAGACCIAHHFMLVFLEGCTVQSEFWIRNANSAFSLLISALLASCVGT,77100
7,VARKLLNTIHPALGPLHACSVLRKIRVLICMAGEHATSTYPLEMLLHSLRVFV,44700
8,VARVVNVFLWSMAVTFFLLVMHRITVYRAQQLYITTYCDPYFPIYPLRRILPQ,45400
9,VASVLVFICHYTECNWGDLTHFYGVNKEHPGSFIQMPYIRLIYSGRPMVHIFF,29900
10,VATADVCMVTHFLILLLLAAITGAVLVSVFAFLCVICPPHLRRRPVFMLNLLA,35400
11,VAVAREPFQEGADASGKLYNKDSLDDEDSRKYVVILNAFLQMLAALDELVLVL,76700
12,VAVARTKARKAVVGIEKVEIAAEVEATPEIVTAARTRERKAVVGIESAETVAE,45800
13,VAVTFHTEPHRLVSIIPALISIWDYILGLSPAELSSCTGIHWCIYILTIIFGF,55400
14,VCEEAVGCVRRAALEGFVDEDVRAANVLVRRAGERKERAGRAGRSRVVLVDLA,32600
15,VCFMGVLIGLLPGTWLCYGSDVCVKGLSSSIISMQLGLLGSLLLILKLVIGVA,61700
16,VCGAHCGYILGHINIFQPINWVLVQSSKVFPIDYVLFLLLVLFFFSASVVGLA,21400
17,VCKHLKRQRISVDGSLKLISDMNHYFTYIETLKNNELLLYFKALRELSQIYLV,70700
18,VCKLLRLETLRWIFREFHWKLHLRKRFLPYHLLTYMRTLRITANNSIKHLSFN,41000
19,VCLNLLGGVVVCYCPGLLVIAAIEAPIRFKHIFTCSIHIHSLYLRLLFCALHA,69200
20,VCLSLYIITCVFGWLLYFITATLSYYYVFDHDYMKHPKFLKNQIRLEINCAAS,76600
21,VCQPLSPPVTGVLLVSFLPLFSRAFLAFLLSTLWLFSPLSDHILYYFCFYLAL,35200

row,Sequence,transcriptional activation domain activity
1,VCVANIFVVFSLYSYTWIQAVVISLSILVYYAFIAIYAQFNTFLFAGQIRLFG,70400
2,VCVCVWELVLVLVVWCCHCFSFVHSLHFLPWLLFSSPLVFLFPFPFFFFCLFL,68600
3,VCVLHLIVIALSLTDLILPSLIWGLTAIFLGVYAIVQKLSIALIVQPQLFGTL,65700
4,VCVRVDWPWLSFPTALVLLTVVLFVTVLVIARRSQVSEGQPIWKSSSIVAFFH,41100
5,VDADTASSVSGMTGGRSARWREDVMELCLACVAVGCVKDVGAVNNYHQTGELR,42700
6,VDAKFVIVANYGTACVVMGFLAVAMYCLLITVGDDIYFVGMLFSFTIIGTLMI,29300
7,VDASTIARLSSPELGAREQLRQEEERRRKIERRARRRERRERERSSALLHLTG,33400
8,VDDSDDDGDEEGGKNEESITKKGVRLLDYACGTGLVSRVSHIPSIAGASSRSL,46600
9,VDFVKHLISCFSVVGEDNFACTLKGFGWMYLTHVYFFFNVFVALNLQLIILLS,60000
10,VDILLKRISTFSYTDSLTMSVAGQLRILYRFINVFYTARDLIGFLALVEKALD,22700
11,VDLSDLGEAVINQSNHNNDNDNSNNGDGNNNNTISELVCFDESIADLYPVEID,71500
12,VDLTQLSHLMLKIWLELILIVVYKHNILERTYENMVISCMKQVIDLLARDISE,51900
13,VDNLLLPLAIHHRFLSYCLYIIGFVYFVYSLEKGHYKFQFTQFCITHMTLFLV,50900
14,VDNQFLSTRSIVTEACRKRGIYLTWIDSDPDILNYLQLSTFQFIVLLMLPLTP,42900
15,VDRFKEFSHFLRRNENRTPSMIVLRRLCLDVSFLLCVVGFVRILWKRSGMRRR,62400
16,VDRSHLELIFGLPIWRLSGILVQTVWYVFQTGFSTLLSLCLFLVSAKRWIVWR,52400
17,VDTCRLSAPLVWWLTFGILCTMYLLVLEVILFGILVFMVLPFIMLLYSIMLLC,49100
18,VEAAEPEIEVPNKDSRPSKRGRKEKVIEEEDSAPVDKPVSKGKKAAPVAKTAL,15300
19,VEAGDGDGAPPKSAKRPRKKKEPVEEGDGDAAAPKPAKRPRKKKVDVTEAQKE,48100
20,VEANTSANLHFDNVIPTVTNADIRKKRSNWDNMMTSGPVEDFWTINDDYGFLT,141000
21,VEAPAEEQAEAPKTKRGRKAAEPAPVEPKEAEAPEPAAKPKRGRKAVSEEPME,42100

row,Sequence,transcriptional activation domain activity
1,VEEQKPVAEEAPVRTKVEESKVQEAPVVEAKAEVAVTAAAAVAATAAVATAAV,23500
2,VEEVLEKRAHRGPAGRSVEEEDEDVEEVLEKRAHRGPAGRSVEVEEKRAHRGP,29700
3,VEFLFPIYATVAFTTLGCISMFALPYAVLTILPNFYLNCPYGTPLSGVTWRLS,61600
4,VENPVTDDNGNLKLELPDNLDNADFSKLLEFDAKNDEALFNSNELLSHTMDPV,94700
5,VEPAPENWRELTQIPAFAGIRSASFVRHTVALVESLLLRAAFVRAVFAELRAC,53700
6,VEQYLHLLPPHSLQEIRWRWRMTKVSRPIPEKMKLVRLNLKAVKHIHLFMKSA,31500
7,VERCHRNIVPNGCAVFQAGGLVVVLVEVSRKSYLASLVPVIVNAILNEHQIVV,65300
8,VERCHRNIVTNGCAVFQAGGLVVVLVEVNRKSYLASIVPVIVNAILNEHQIIV,40900
9,VETRSFWFLPVIQKHALHLTMVDILSSTPGIWCLSEFMIGHLLLCVHLRSISV,60500
10,VFCMLYTLLHILAACLHYHCFSHLAPPYQTLLWYSYFNVIIVGLLLFWYCELV,35100
11,VFERVRLDWLILFDLRMWKKVRNDLRALYISTVVTIPEFKRILGLRFAALYTT,51300
12,VFFFLVIALYPFFSSLFTRHGFYTFSPFNCQLSWLFFQWGHSILLFLLRLVSY,46600
13,VFFLSLCFASFFPLGHLCWAKGLFHTLEFIAPISRSVSCYVMGLVLYTFHLPE,22000
14,VFFMPSMCSGYLWISLCYLSFWTNMREWRLKRKVVWFLCLFWVFMCCLLFYLT,34700
15,VFFVWICCCYGTHILSVFVDPSGMYIVPLNILGSLLHGSTLPCIVASWLIIHL,45600
16,VFIAVLSCVGTCGASYLCISFMPLVCHNSPYYTPLSSLIWSCRAGLRCLYLWI,55300
17,VFLFLLTYFTIDIGLTNLPPLVIITVYLPHPPPLPDILLYWVLFLCCAVWGAV,39800
18,VFLGMLFWHCRNYLTSYHYLFSTLAIWVLSYIMRLFYLNWSNPWRMSWLIGDE,58300
19,VFLHHFRRAIFPLCNLVCSSWNVITFSHPWMIFAIIMFLHWSWILGLQKGMLI,83600
20,VFLKVYLLNPLHMTRFADLLYQGAILNRIFQPYESHLQYLLQWMCDYNLYGCA,71200
21,VFLNGILFLGSILFYQVVLLRLNWYLLHILAYTIAFAYNAFWLYPVYCLSFLL,33000

row,Sequence,transcriptional activation domain activity
1,VFRLCLGDLFRPYGISLNVIRLMLMATGTDLDFYVPRSKWRQVLLFLRLASGY,72200
2,VFRLYFYLLYFIFYRNLFARLRNWEQYTLIQVASSVWVIIFYPLRMTRTTHGL,65900
3,VFSQTEAIRVLGLIGRIATGRHLDIILSDILPPSTVAELYALGKFMNLPWWYR,58400
4,VFTDSLFQIVLVGRLTGFFYSFSFLFFFLSFFFFFSFIPFFPPFLYGLFFFLF,67600
5,VFTSLHTCRFAAPHLWWLIFSILCLQYLIILEVFVIAMLVFIIGPLIYLFWNI,42600
6,VFVPIPGLRNRRVHILLPNLYLLHQITFFRFSRRRSTLVLLLVCVSIVFAMYA,36500
7,VFWRSLFNRVFDFGFDLVLFVFFSLALSLYFVVSHSKSLPFWFMCFFFIPLFN,78000
8,VFYGSNYFFICAISYVKGLGFCISDSFRYSWMSISPYWMIFMVVCNILPAILI,63900
9,VGAVMVRGQDYVPAFDVAPDWESYDYAKLDPTNDDDKEFINNMWAWDKPVSVN,57300
10,VGEEGEEKESMRVRVREEMVAQATSLAFLRNVNAIGEETTSLLDTAARLVRIG,63700
11,VGETVVTFCYEDGIMVMAMVGSGFMGYYLYTLQVKHSFSGPGPWFLGMALICL,68700
12,VGEWMGGGVGCLAAWLGHGIRIFGGTEYWLVPEFFFPLFLFFSFPPWSLVLFC,74100
13,VGGEANGEVVKRKSKKKGGKEETDTEVVDGEDQSSRKVATRKLSRGKAEKKAK,48900
14,VGIKVAEDKQQEMRDAGRRTRGARLSSFGNALVIGGGRLSDGYVGTRELKTHV,50500
15,VGISLFLIACKLYLTVYYNELLISNPASAKSIYKILEYVNIMVYVSKAFGMYQ,62800
16,VGKSCGRCRFPICYNPRGTCICCALRSNIVIPWMHFAYRNPHDRKPFVLHFTF,41700
17,VGLAIYCVSQHLMIPSATELICMYPVVNSTIGLITYYYLIFSFLFGIMIITYC,64600
18,VGLFGMGQKRISALIGVLFAFTLGCVLILRWRLPWYRNLIQTLLYHLFVIYLH,52600
19,VGLKWGMGRDKSFSFTSKLNNPQFLGSLDLEILEELEKLISAQEFSRNFTEDV,70100
20,VGLVGMSLSILGKDHLVWNALAACRTEISEVFERMLRALYHWMIDVAHQYCGK,56300
